{"source": "the supplement of paper PMC7877785", "assay": "self-splicing fitness, log relative to wild type (ln ratio); higher = more splicing; Tetrahymena group I intron in knt gene, E. coli kanamycin selection, DiMSum; sequences stand for … in CUCUCU…GGAGGGAAAAGUUAUCAGGCAUGCACCUGGUAGCUAGUCUUUAAACCAAUAGAUUGCAUCGGUUUAAAAGGCAAGACCGUCAAAUUGCGGGAAAGGGGUCAACAGCCGUUCAGUACCAAGUCUCAGGGGAAACUUUGAGAUGGCCUUGCAAAGGGUAUGGUAAUAAGCUGACGGACAUGGUCCUAACCACGCAGCCAAGUCCUAAGUCAACAGAUCUUCUGUUGAUAUGGAUGCAGUUCACAGACUAAAUGUCGGUCGGGGAAGAUGUAUUCUUCUCAUAAGAUAUAGUCGGACCUCUCCUUAAUGGGAGCUAGCGGAUGAAGUGAUGCAACACUGGAGCCGCUGGGAACUAAUUUGUAUGCGAAAGUAUAUUGAUUAGUUUUGGAGUACUCGUGGUCG", "procedure,_shortened": "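Six replicate transformations of E. coli BL21(DE3) with a pET-22b(+) library were grown overnight at 37°C or 30°C. The library randomised all eight P1ex-region intron nucleotides, the intron lying in the knt kanamycin-resistance gene, and plates were LB agar with or without 25 μg/mL kanamycin plus 100 μg/mL carbenicillin, 50 μM IPTG and 0.2% rhamnose. Pooled colonies were amplicon-sequenced on an Illumina HiSeq 2500, and fitness is the DiMSum error-weighted combination of wild-type-normalised replicate fold changes, kanamycin versus none.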", "note": "± gives the uncertainty stated by the source."}
{"sequence": "CCGGAGCAAUAUUACGAGGG", "values": [{"measurement": "self-splicing fitness (ln)", "setting": "30 °C", "value": "-2.13 ± 0.27"}, {"measurement": "self-splicing fitness (ln)", "setting": "37 °C", "value": "-1.47 ± 0.29"}]}
{"sequence": "CUUAAGCAAUAUUACGGCAC", "values": [{"measurement": "self-splicing fitness (ln)", "setting": "30 °C", "value": "-3.43 ± 0.43"}]}
{"sequence": "GUCAAGCAAUAUUACGGGGC", "values": [{"measurement": "self-splicing fitness (ln)", "setting": "30 °C", "value": "-5.02 ± 0.45"}, {"measurement": "self-splicing fitness (ln)", "setting": "37 °C", "value": "-3.14 ± 0.27"}]}
{"sequence": "ACUGAGCAAUAUUACGCAGU", "values": [{"measurement": "self-splicing fitness (ln)", "setting": "30 °C", "value": "-2.36 ± 0.24"}, {"measurement": "self-splicing fitness (ln)", "setting": "37 °C", "value": "-1.35 ± 0.2"}]}
{"sequence": "CUGAAGCAAUAUUACGGCCG", "values": [{"measurement": "self-splicing fitness (ln)", "setting": "30 °C", "value": "-0.134 ± 0.2"}, {"measurement": "self-splicing fitness (ln)", "setting": "37 °C", "value": "0.451 ± 0.27"}]}
{"sequence": "CGGCAGCAAUAUUACGAAUC", "values": [{"measurement": "self-splicing fitness (ln)", "setting": "30 °C", "value": "-4.16 ± 0.39"}, {"measurement": "self-splicing fitness (ln)", "setting": "37 °C", "value": "-2.23 ± 0.34"}]}
{"sequence": "AGUGAGCAAUAUUACGGGUG", "values": [{"measurement": "self-splicing fitness (ln)", "setting": "30 °C", "value": "-3.71 ± 0.17"}, {"measurement": "self-splicing fitness (ln)", "setting": "37 °C", "value": "-2.79 ± 0.21"}]}
{"sequence": "UGGUAGCAAUAUUACGCUGG", "values": [{"measurement": "self-splicing fitness (ln)", "setting": "30 °C", "value": "-2.08 ± 0.2"}, {"measurement": "self-splicing fitness (ln)", "setting": "37 °C", "value": "-2.52 ± 0.2"}]}
{"sequence": "CCCUAGCAAUAUUACGUAUC", "values": [{"measurement": "self-splicing fitness (ln)", "setting": "37 °C", "value": "-3.37 ± 0.39"}]}
{"sequence": "GUUGAGCAAUAUUACGAAUC", "values": [{"measurement": "self-splicing fitness (ln)", "setting": "30 °C", "value": "-1.91 ± 0.26"}, {"measurement": "self-splicing fitness (ln)", "setting": "37 °C", "value": "0.505 ± 0.25"}]}
{"sequence": "AUGGAGCAAUAUUACGGGGA", "values": [{"measurement": "self-splicing fitness (ln)", "setting": "30 °C", "value": "-3.29 ± 0.4"}, {"measurement": "self-splicing fitness (ln)", "setting": "37 °C", "value": "-2.28 ± 0.32"}]}
{"sequence": "ACACAGCAAUAUUACGCCUU", "values": [{"measurement": "self-splicing fitness (ln)", "setting": "30 °C", "value": "-1.62 ± 0.076"}, {"measurement": "self-splicing fitness (ln)", "setting": "37 °C", "value": "-0.434 ± 0.091"}]}
{"sequence": "ACUGAGCAAUAUUACGGCCA", "values": [{"measurement": "self-splicing fitness (ln)", "setting": "30 °C", "value": "-2.43 ± 0.28"}, {"measurement": "self-splicing fitness (ln)", "setting": "37 °C", "value": "-2.07 ± 0.33"}]}
{"sequence": "UAGCAGCAAUAUUACGUCCA", "values": [{"measurement": "self-splicing fitness (ln)", "setting": "30 °C", "value": "-0.794 ± 0.11"}, {"measurement": "self-splicing fitness (ln)", "setting": "37 °C", "value": "-0.187 ± 0.11"}]}
{"sequence": "GCACAGCAAUAUUACGAUCU", "values": [{"measurement": "self-splicing fitness (ln)", "setting": "30 °C", "value": "-0.54 ± 0.064"}, {"measurement": "self-splicing fitness (ln)", "setting": "37 °C", "value": "0.0668 ± 0.085"}]}
{"sequence": "CCAGAGCAAUAUUACGGAUA", "values": [{"measurement": "self-splicing fitness (ln)", "setting": "30 °C", "value": "-3.52 ± 0.22"}, {"measurement": "self-splicing fitness (ln)", "setting": "37 °C", "value": "-1.91 ± 0.16"}]}
{"sequence": "GUUCAGCAAUAUUACGGGGG", "values": [{"measurement": "self-splicing fitness (ln)", "setting": "30 °C", "value": "-1.52 ± 0.13"}, {"measurement": "self-splicing fitness (ln)", "setting": "37 °C", "value": "-1.4 ± 0.16"}]}
{"sequence": "GGUGAGCAAUAUUACGGGCU", "values": [{"measurement": "self-splicing fitness (ln)", "setting": "30 °C", "value": "-2.81 ± 0.19"}, {"measurement": "self-splicing fitness (ln)", "setting": "37 °C", "value": "-2.67 ± 0.44"}]}
{"sequence": "CCAUAGCAAUAUUACGAAGG", "values": [{"measurement": "self-splicing fitness (ln)", "setting": "30 °C", "value": "-3.26 ± 0.22"}, {"measurement": "self-splicing fitness (ln)", "setting": "37 °C", "value": "-2.87 ± 0.34"}]}
{"sequence": "UGCGAGCAAUAUUACGUCAG", "values": [{"measurement": "self-splicing fitness (ln)", "setting": "30 °C", "value": "-2.69 ± 0.27"}, {"measurement": "self-splicing fitness (ln)", "setting": "37 °C", "value": "-2.11 ± 0.43"}]}
{"sequence": "CGCAAGCAAUAUUACGCGAA", "values": [{"measurement": "self-splicing fitness (ln)", "setting": "30 °C", "value": "-3.58 ± 0.16"}, {"measurement": "self-splicing fitness (ln)", "setting": "37 °C", "value": "-1.87 ± 0.13"}]}
{"sequence": "CCCAAGCAAUAUUACGCACU", "values": [{"measurement": "self-splicing fitness (ln)", "setting": "30 °C", "value": "-3.57 ± 0.19"}, {"measurement": "self-splicing fitness (ln)", "setting": "37 °C", "value": "-2.72 ± 0.25"}]}
{"sequence": "GCCAAGCAAUAUUACGUUCG", "values": [{"measurement": "self-splicing fitness (ln)", "setting": "30 °C", "value": "-3.08 ± 0.17"}, {"measurement": "self-splicing fitness (ln)", "setting": "37 °C", "value": "-1.22 ± 0.13"}]}
{"sequence": "ACUAAGCAAUAUUACGAGUG", "values": [{"measurement": "self-splicing fitness (ln)", "setting": "30 °C", "value": "-1.42 ± 0.08"}, {"measurement": "self-splicing fitness (ln)", "setting": "37 °C", "value": "-0.758 ± 0.11"}]}
{"sequence": "AGAUAGCAAUAUUACGCACC", "values": [{"measurement": "self-splicing fitness (ln)", "setting": "30 °C", "value": "0.321 ± 0.21"}, {"measurement": "self-splicing fitness (ln)", "setting": "37 °C", "value": "0.267 ± 0.34"}]}
{"sequence": "GAUAAGCAAUAUUACGUGAU", "values": [{"measurement": "self-splicing fitness (ln)", "setting": "30 °C", "value": "-2.21 ± 0.12"}, {"measurement": "self-splicing fitness (ln)", "setting": "37 °C", "value": "-0.957 ± 0.12"}]}
{"sequence": "GGCAAGCAAUAUUACGAGGA", "values": [{"measurement": "self-splicing fitness (ln)", "setting": "30 °C", "value": "-3.3 ± 0.42"}, {"measurement": "self-splicing fitness (ln)", "setting": "37 °C", "value": "-1.77 ± 0.24"}]}
{"sequence": "CUCGAGCAAUAUUACGUUAA", "values": [{"measurement": "self-splicing fitness (ln)", "setting": "30 °C", "value": "-3.68 ± 0.2"}, {"measurement": "self-splicing fitness (ln)", "setting": "37 °C", "value": "-2.53 ± 0.17"}]}
{"sequence": "CGAAAGCAAUAUUACGUCAU", "values": [{"measurement": "self-splicing fitness (ln)", "setting": "30 °C", "value": "-4.71 ± 0.36"}, {"measurement": "self-splicing fitness (ln)", "setting": "37 °C", "value": "-0.631 ± 0.14"}]}
{"sequence": "CUAAAGCAAUAUUACGCAUG", "values": [{"measurement": "self-splicing fitness (ln)", "setting": "30 °C", "value": "-0.592 ± 0.071"}, {"measurement": "self-splicing fitness (ln)", "setting": "37 °C", "value": "-0.193 ± 0.089"}]}
{"sequence": "AGUCAGCAAUAUUACGCUCG", "values": [{"measurement": "self-splicing fitness (ln)", "setting": "30 °C", "value": "-0.828 ± 0.075"}, {"measurement": "self-splicing fitness (ln)", "setting": "37 °C", "value": "-0.495 ± 0.098"}]}
{"sequence": "UUAAAGCAAUAUUACGGUAG", "values": [{"measurement": "self-splicing fitness (ln)", "setting": "30 °C", "value": "-0.312 ± 0.076"}, {"measurement": "self-splicing fitness (ln)", "setting": "37 °C", "value": "0.29 ± 0.11"}]}
{"sequence": "UCAAAGCAAUAUUACGUUCG", "values": [{"measurement": "self-splicing fitness (ln)", "setting": "30 °C", "value": "-1.17 ± 0.087"}, {"measurement": "self-splicing fitness (ln)", "setting": "37 °C", "value": "-0.407 ± 0.12"}]}
{"sequence": "GGAAAGCAAUAUUACGACAA", "values": [{"measurement": "self-splicing fitness (ln)", "setting": "30 °C", "value": "-1.71 ± 0.12"}, {"measurement": "self-splicing fitness (ln)", "setting": "37 °C", "value": "-1 ± 0.14"}]}
{"sequence": "CACUAGCAAUAUUACGCUGG", "values": [{"measurement": "self-splicing fitness (ln)", "setting": "30 °C", "value": "-4.08 ± 0.37"}, {"measurement": "self-splicing fitness (ln)", "setting": "37 °C", "value": "-1.87 ± 0.22"}]}
{"sequence": "AUAGAGCAAUAUUACGCAUC", "values": [{"measurement": "self-splicing fitness (ln)", "setting": "30 °C", "value": "-3.91 ± 0.31"}, {"measurement": "self-splicing fitness (ln)", "setting": "37 °C", "value": "-2.11 ± 0.25"}]}
{"sequence": "UGUUAGCAAUAUUACGCGCU", "values": [{"measurement": "self-splicing fitness (ln)", "setting": "30 °C", "value": "-1.36 ± 0.13"}, {"measurement": "self-splicing fitness (ln)", "setting": "37 °C", "value": "-0.409 ± 0.12"}]}
{"sequence": "GAAAAGCAAUAUUACGACAA", "values": [{"measurement": "self-splicing fitness (ln)", "setting": "30 °C", "value": "-0.627 ± 0.084"}, {"measurement": "self-splicing fitness (ln)", "setting": "37 °C", "value": "-0.496 ± 0.096"}]}
